Results published in patent US7125847 (RESEARCH FOUNDATION OF STATE UNIVERSITY OF NEW YORK AT …, dated 2006).
Where no end group is shown, it is not given here.

Biological target: stretch-activated channels (cationic SACs) of ventricular myocytes from rabbits with aortic … (rabbit)
Assay: cell-based or functional assay

B1: GsMTx-4 purified from Grammostola spatulata venom (peptide)
peptide: GCLEFWWKCNPNDDKCCRPKLKCSKLFKLCNFSSG-NH2
modifications: disulfide (positions not given here); not fully specified (bridges); also: 3 disulfides (ICK motif), pairing not given here
B1 was tested, and the “myocyte cell volume reduction relative to that produced by 1.5 T saline” value was roughly 40%.
